Source: patent publication US20240093191A1, “COMPOSITIONS AND METHODS FOR TREATING DISEASE ASSOCIATED WITH DUX4 OVEREXPRESSION” (RESEARCH INSTITUTE AT NATIONWIDE CHILDREN'S HOSPITAL, priority 2021, published 2024)

Assays:
[1] = test system: mir-675R (reverse complementary sequence of mir-675-5p); assay: Dual-luciferase assay with mir-675 perfect target site (mir-675R) as Renilla 3'UTR; assay type: cell-based, human; details: mir-675R perfect target site; normalized to milacZ
Description: The QPCR was done using the Taqman probes designed to recognize the mature sequence of mir-675-5p and -3p. mir-675-3p expression was 2.20±0.15-fold higher than that of mir-675-5p (P<0.0001, ANOVA, N=3). Gene expression was normalized to the housekeeping gene RPL13A. Results were reported as the average relative gene expression±SEM of three replicates (N=3). […] The miRNA (pmoles) was used at 40-fold of the RenLuc-DUX4-FL (pmoles). When testing the U6.mir-675-3p construct, the relative Renilla luciferase kept on average 95% (P<0.2, ANOVA) of its activity, even though U6.mir-675-3p expressed high levels of mir-675-3p relative to the negative control mir-675-5p levels. On the other hand, U6.mir-675-5p was able to reduce the relative Renilla luciferase activity on average by 33±3% (P<0.0001, ANOVA, N=3). All readings were normalized to the milacZ negative control. Results were reported as the average relative Renilla luciferase activity±SEM of three replicates (N=3). […] This sequence was cloned as a 3′UTR downstream the Renilla luciferase gene. […] All readings were normalized to the milacZ negative control. […]
Dual Luciferase Assay. […] Luciferase activity was measured 24h or 48h after transfection. DUX4 gene silencing was determined as previously described [Wallace et al., Mol. Ther. Methods Clin. Dev. […]

CDC6 = assay: QPCR of CDC6 in transfected HEK293 cells; assay type: cell-based, human; details: 48 h, relative to U6.milacZ
Protocol: The expression of SMAD1, SMAD5 and CDC6 was measured by QPCR in HEK293 cells using TaqMan probes specific to each investigated gene. To do that, U6.milacZ (negative control), H1.mir-675, U6.mir-675-3p or U6.mir-675-5p expressing constructs were transfected into HEK293 cells, and total RNA was extracted 48h after transfection. As a result, U6.mir-675-3p reduced SMAD1 levels by an average of 32±6% (P<0.044, ANOVA, N=3) and SMAD5 levels by an average of 35±6% (P<0.0013, ANOVA, N=3). On the other hand, H1.mir-675 and U6.mir-675-5p repressed CDC6 levels by an average of 38±4% (P<0.0034, ANOVA, N=3) and 36±7% (P<0.0048, ANOVA, N=3), respectively. Results were reported as relative gene expression (ΔΔCq)±SEM of three replicates (N=3) relative to gene expression in cells transfected with U6.milacZ, with each QPCR assay performed in triplicate. All results were quantified using as reference gene the house keeping gene RPL13A.
Along with a previous study showing the beneficial effect of mir-675 on regeneration and differentiation of injured mouse skeletal muscles [Dey et al., Genes Dev. […] QPCR was used to measure the expression of SMAD1, SMAD5 and CDC6 in HEK293 cells using TaqMan probes specific to each investigated gene. […] All results were quantified using as reference gene the house keeping gene RPL13A. […]

Molecule	reduction of relative Renilla luciferase activity (maximum inhibition) [1] [%]	repression of CDC6 levels (CDC6) [%]
U6.mir-675: U6 promoter-driven mir-675 expression plasmid with 40 nt 5' and 47 nt 3' flanking sequences (nucleic acid) DNA: GACGCCGCCATCTCTAGGCCCGCGCCGGCCCCCTCGCACAGACTTGTGGGAGAAGCTCGGCTACTCCCCTGCCCCGGTTAATTTGCATATAATATTTCCTAGTAACTATAGAGGCTTAATGTGCGATAAAAGACAGATAATCTGTTCTTTTTAATACTAGCTACATTTTACATGATAGGCTTGGATTTCTATAAGAGATACAAATACTAAATTATTATTTTAAAAAACAGCACAAAAGGAAACTCACCCTAACTGTAAAGTAATTGTGTGTTTTGAGACTATAAATATCCCTTGGAGAAAAGCCTTGTTTGCGTTTAGTGAACCGTCAGATGGTACCGTTTAAACTCGAGCCCAGGGTCTGGTGCGGAGAGGGCCCACAGTGGACTTGGTGACGCTGTATGCCCTCACCGCTCAGCCCCTGGGACTAGAGCGGCCGCCACAGCGGGGAGATCCAGACATGATAAGATACATTTTTT	41±12	
H1.mir-675: commercially available H1 promoter mir-675 expression plasmid (SBI Biosciences) (nucleic acid) DNA: GAACGCTGACGTCATCAACCCGCTCCAAGGAATCGCGGGCCCAGTGTCACTAGGCGGGAACACCCAGCGCGCGTGCGCCCTGGCAGGAAGATGGCTGTGAGGGACAGGGGAGTGGCGCCCTGCAATATTTGCATGTCGCTATGTGTTCTGGGAAATCACCATAAACGTGAAATGTCTTTGGATTTGGGAATCTTATAAGTTCTGTATGAGACCACCCCCCAGGGTCTGGTGCGGAGAGGGCCCACAGTGGACTTGGTGACGCTGTATGCCCTCACCGCTCAGCCCCTGGGGAATTCTTCGATTCTGCTTTTTT		38±4
